Key:
[1] = target: ZYG11B (residues 490–728), Q9C0D3; assay: ITC; details: chain shown with the change;; parent: 2.5 µM
SFLHVGQD peptide = target: T1, SFLHVGQD peptide; assay: ITC; details: chain shown with the change;; parent: 1.3
T1 chain: SFLHVGQD

Sequence of ZYG11B (residues 490–728), Q9C0D3 (Q9C0D3 other isoform, or with tags, fused parts or gaps): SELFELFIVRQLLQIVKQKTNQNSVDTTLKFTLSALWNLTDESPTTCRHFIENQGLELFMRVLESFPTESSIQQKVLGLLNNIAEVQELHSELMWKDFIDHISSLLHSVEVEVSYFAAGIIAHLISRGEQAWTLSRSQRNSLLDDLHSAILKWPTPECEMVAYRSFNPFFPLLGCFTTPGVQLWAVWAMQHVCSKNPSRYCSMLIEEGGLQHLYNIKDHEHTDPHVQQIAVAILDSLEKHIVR

Binder: VFLHVGQD [GFLHVGQD peptide G1V]
- Kd [1]: > 100 µM

B1: ZER1 (residues 469–766), Q7Z7L7 D556A (protein)
chain: MEELEELEFQYRRVNELLLSILNPTRQDESIQRIAVHLCNALVCQVDNDHKEAVGKMGFVVTMLKLIQKKLLDKTCDQVMEFSWSALWNITAETPDNCEMFLNFNGMKLFLDCLKEFPEKQELHRNMLGLLGNVAEVKELRPQLMTSQFISVFSNLLESKADGIEVSYNACGVLSHIMFDGPEAWGVCEPQREEVEERMWAAIQSWDINSRRNINYRSFEPILRLLPQGISPVSQHWATWALYNLVSVYPDKYCPLLIKEGGMPLLRDIIKMATARQETKEMARKVIEHCSNFKEENMDTSR
- Kd (SFLHVGQD peptide): > 100 µM

B2: ZER1 (residues 469–766), Q7Z7L7 E600A (protein)
chain: MEELEELEFQYRRVNELLLSILNPTRQDESIQRIAVHLCNALVCQVDNDHKEAVGKMGFVVTMLKLIQKKLLDKTCDQVMEFSWSALWNITDETPDNCEMFLNFNGMKLFLDCLKEFPEKQELHRNMLGLLGNVAAVKELRPQLMTSQFISVFSNLLESKADGIEVSYNACGVLSHIMFDGPEAWGVCEPQREEVEERMWAAIQSWDINSRRNINYRSFEPILRLLPQGISPVSQHWATWALYNLVSVYPDKYCPLLIKEGGMPLLRDIIKMATARQETKEMARKVIEHCSNFKEENMDTSR
- Kd (SFLHVGQD peptide): > 100 µM

Source: publication PMC9741652, “CRL2^ZER1/ZYG11B recognizes small N-terminal residues for degradation” (Nature Communications, 2022)
